According to PMC3435407 (PLoS ONE, 2012):
Non-standard residues stand in square brackets, D forms with d. No end group written: not given here. *: point of attachment. Biotin = O=C1N[C@H]2[C@H](CS[C@H]2CCCCC(=O)*)N1; Bpa = N[C@@H](Cc1ccc(C(=O)c2ccccc2)cc1)C(=O)O

What was measured:
[1] = biological target: T1, αAG98R-crystallin (human αA-crystallin G98R mutant) (human, UniProt P02489 1-173, G98R); experiment: cross-linking; 200 µg biotinyl-Bpa peptide with 200 µg αAG98R, pH 7.2, 37°C, 1 hr; free peptide removed on a 10 kDa filter; photolysis at 365 nm, 30 min, 4°C; SDS-PAGE and western blot for biotin (avidin-horseradish peroxidase); conditions: both partners purified
T1 sequence (P02489 whole entry G98R): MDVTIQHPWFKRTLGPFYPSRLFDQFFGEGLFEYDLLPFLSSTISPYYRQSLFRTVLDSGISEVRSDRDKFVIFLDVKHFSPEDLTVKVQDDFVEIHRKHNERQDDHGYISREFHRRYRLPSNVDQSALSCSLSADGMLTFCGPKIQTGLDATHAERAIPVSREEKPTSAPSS

[2] = biological target: T1, αAG98R-crystallin (human αA-crystallin …); experiment: cross-linking; 200 µg biotinyl-Bpa peptide with 200 µg αAG98R, pH 7.2, 37°C, 1 hr; free peptide removed on a 10 kDa filter; photolysis at 365 nm, 30 min, 4°C; desalted on C18; MALDI-TOF/TOF mass spectrometry; conditions: both partners purified

Biotin-DFVIFLDVKH[Bpa]SPEDLTVK [Biotin-DFVIFLDVKH(Bpa)SPEDLTVK (biotinyl αA-mini-chaperone-Bpa peptide)]
stoichiometry N [1]: 1 peptide per αAG98R subunit
stoichiometry N [2]: 1 peptide per αAG98R monomer
